In patent US20200262877A1, “ION CHANNEL-BINDING PEPTIDES AND METHODS OF USE THEREOF” (priority 2017, published 2020):

How the values were obtained:
[1] = biological target: T1, 5HT3a (Homo sapiens, UniProt P46098); experiment: Ion channel panel (IonWorks Barracuda): 5HT3a; assay type: cell-based
T1 construct: host or cells: HEK293 or CHO
T1 sequence (P46098 whole entry, looked up): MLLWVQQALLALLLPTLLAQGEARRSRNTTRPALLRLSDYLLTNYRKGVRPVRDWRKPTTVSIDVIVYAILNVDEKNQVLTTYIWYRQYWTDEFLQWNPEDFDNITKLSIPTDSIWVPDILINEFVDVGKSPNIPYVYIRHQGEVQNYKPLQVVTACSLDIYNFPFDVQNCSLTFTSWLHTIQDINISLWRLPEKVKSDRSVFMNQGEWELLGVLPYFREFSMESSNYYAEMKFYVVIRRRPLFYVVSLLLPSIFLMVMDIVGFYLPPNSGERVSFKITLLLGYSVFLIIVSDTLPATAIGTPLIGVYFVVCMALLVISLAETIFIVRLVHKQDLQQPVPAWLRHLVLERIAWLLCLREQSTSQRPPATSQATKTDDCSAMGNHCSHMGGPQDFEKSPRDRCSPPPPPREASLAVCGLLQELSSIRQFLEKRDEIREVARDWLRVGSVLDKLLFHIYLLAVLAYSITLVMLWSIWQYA
Summary of the method: (§1)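 Peptides were tested in duplicate at final 20 μM and 200 nM, with concentration set by amino acid analysis, in HEPES-buffered saline. They were applied for at least 5 min to HEK293 or CHO cells transfected with each channel. Currents were expressed as % inhibition, 1-(Ipeptide/Icontrol)×100, or % activation, Ipeptide/Icontrol×100, against a channel-matched reference compound.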

[2] = biological target: T2, α3β4 (Homo sapiens, UniProt P30926+P32297); experiment: Ion channel panel (IonWorks Barracuda): α3β4; assay type: cell-based; conditions: 100% = no change, <100% = inhibition
T2 construct: host or cells: HEK293 or CHO
Summary of the method: as §1

[3] = biological target: T3, α4β2 (Homo sapiens, UniProt P17787+P43681); experiment: Ion channel panel (IonWorks Barracuda): α4β2; assay type: cell-based; conditions: 100% = no change, <100% = inhibition
T3 construct: host or cells: HEK293 or CHO
Summary of the method: as §1

[4] = biological target: T4, Cav2.1 (Homo sapiens, UniProt O00555); experiment: cell-based; conditions: 100% = no change, <100% = inhibition
T4 construct: host or cells: HEK293 or CHO
Summary of the method: as §1

[5] = biological target: T5, Cav2.2 (Homo sapiens, UniProt Q00975); experiment: cell-based; conditions: 100% = no change, <100% = inhibition
T5 construct: host or cells: HEK293 or CHO
Summary of the method: as §1

[6] = biological target: T6, Kv2.1 (Homo sapiens, UniProt Q14721); experiment: cell-based; conditions: 100% = no change, <100% = inhibition
T6 construct: host or cells: HEK293 or CHO
Summary of the method: as §1

[7] = tested on: GABA; experiment: Ion channel panel (IonWorks Barracuda): GABA; assay type: cell-based; conditions: 100% = no change, <100% = inhibition
Summary of the method: as §1

[8] = biological target: Nav1.5 (Homo sapiens, UniProt Q14524); experiment: in vitro; conditions: 100% = no change; for Activity of Nav1.5 with peptide, expressed as a percentage of the reference compound: peptide at 0.2 μM; for Activity of Nav1.5 with peptide (percentage of the reference compound): peptide at 20 μM
Summary of the method: as §1

[9] = biological target: hERG (Homo sapiens, UniProt Q12809); experiment: in vitro; conditions: 100% = no change, <100% = inhibition
Summary of the method: as §1

[10] = biological target: T7, Kir2.1 (Homo sapiens, UniProt P63252); experiment: Ion channel panel (IonWorks Barracuda): Kir2.1; assay type: cell-based; conditions: 100% = no change, <100% = inhibition
T7 construct: host or cells: HEK293 or CHO
Summary of the method: as §1

[11] = biological target: T8, Kv1.1 (Homo sapiens, UniProt Q09470); experiment: cell-based; assay type: cell-based; conditions: 100% = no change, <100% = inhibition
T8 construct: host or cells: HEK293 or CHO
Summary of the method: as §1

[12] = biological target: T9, Kv1.2 (Homo sapiens, UniProt P16389); experiment: cell-based; assay type: cell-based; conditions: 100% = no change, <100% = inhibition
T9 construct: host or cells: HEK293 or CHO
Summary of the method: as §1

[13] = biological target: T10, Kv1.3 (Homo sapiens, UniProt P22001); experiment: cell-based; assay type: cell-based; conditions: 100% = no change, <100% = inhibition
T10 construct: host or cells: HEK293 or CHO
Summary of the method: as §1

[14] = biological target: T11, Nav1.7 (Homo sapiens, UniProt Q15858); experiment: cell-based; assay type: cell-based; conditions: 100% = no change; for Activity of Nav1.7 with peptide, expressed as a percentage of the reference compound: peptide at 0.2 μM; for Activity of Nav1.7 with peptide (percentage of the reference compound): peptide at 20 μM
T11 construct: host or cells: HEK293 or CHO

[15] = biological target: T12, NR2A (Homo sapiens, UniProt Q12879); experiment: Ion channel panel (IonWorks Barracuda): NR2A; assay type: cell-based; conditions: 100% = no change, <100% = inhibition
T12 construct: host or cells: HEK293 or CHO
Summary of the method: as §1

[16] = biological target: T13, NR2B (Homo sapiens, UniProt Q13224); experiment: Ion channel panel (IonWorks Barracuda): NR2B; assay type: cell-based; conditions: 100% = no change, <100% = inhibition
T13 construct: host or cells: HEK293 or CHO
Summary of the method: as §1

[17] = biological target: T14, TRPA1 (Homo sapiens, UniProt O75762); experiment: Ion channel panel (IonWorks Barracuda): TRPA1; assay type: cell-based; conditions: 100% = no change, <100% = inhibition
T14 construct: host or cells: HEK293 or CHO
Summary of the method: as §1

[18] = biological target: T15, TRPV1 (Homo sapiens, UniProt Q8NER1); experiment: Ion channel panel (IonWorks Barracuda): TRPV1; assay type: cell-based; conditions: 100% = no change, <100% = inhibition
T15 construct: host or cells: HEK293 or CHO
Summary of the method: as §1

[19] = first of two Nav1.5 columns (probably TP1)
[20] = second of two Nav1.5 columns (probably TP2)
[21] = first of two Nav1.7 columns (probably TP1)
[22] = second of two Nav1.7 columns (probably TP2)

T11 sequence (Q15858 whole entry): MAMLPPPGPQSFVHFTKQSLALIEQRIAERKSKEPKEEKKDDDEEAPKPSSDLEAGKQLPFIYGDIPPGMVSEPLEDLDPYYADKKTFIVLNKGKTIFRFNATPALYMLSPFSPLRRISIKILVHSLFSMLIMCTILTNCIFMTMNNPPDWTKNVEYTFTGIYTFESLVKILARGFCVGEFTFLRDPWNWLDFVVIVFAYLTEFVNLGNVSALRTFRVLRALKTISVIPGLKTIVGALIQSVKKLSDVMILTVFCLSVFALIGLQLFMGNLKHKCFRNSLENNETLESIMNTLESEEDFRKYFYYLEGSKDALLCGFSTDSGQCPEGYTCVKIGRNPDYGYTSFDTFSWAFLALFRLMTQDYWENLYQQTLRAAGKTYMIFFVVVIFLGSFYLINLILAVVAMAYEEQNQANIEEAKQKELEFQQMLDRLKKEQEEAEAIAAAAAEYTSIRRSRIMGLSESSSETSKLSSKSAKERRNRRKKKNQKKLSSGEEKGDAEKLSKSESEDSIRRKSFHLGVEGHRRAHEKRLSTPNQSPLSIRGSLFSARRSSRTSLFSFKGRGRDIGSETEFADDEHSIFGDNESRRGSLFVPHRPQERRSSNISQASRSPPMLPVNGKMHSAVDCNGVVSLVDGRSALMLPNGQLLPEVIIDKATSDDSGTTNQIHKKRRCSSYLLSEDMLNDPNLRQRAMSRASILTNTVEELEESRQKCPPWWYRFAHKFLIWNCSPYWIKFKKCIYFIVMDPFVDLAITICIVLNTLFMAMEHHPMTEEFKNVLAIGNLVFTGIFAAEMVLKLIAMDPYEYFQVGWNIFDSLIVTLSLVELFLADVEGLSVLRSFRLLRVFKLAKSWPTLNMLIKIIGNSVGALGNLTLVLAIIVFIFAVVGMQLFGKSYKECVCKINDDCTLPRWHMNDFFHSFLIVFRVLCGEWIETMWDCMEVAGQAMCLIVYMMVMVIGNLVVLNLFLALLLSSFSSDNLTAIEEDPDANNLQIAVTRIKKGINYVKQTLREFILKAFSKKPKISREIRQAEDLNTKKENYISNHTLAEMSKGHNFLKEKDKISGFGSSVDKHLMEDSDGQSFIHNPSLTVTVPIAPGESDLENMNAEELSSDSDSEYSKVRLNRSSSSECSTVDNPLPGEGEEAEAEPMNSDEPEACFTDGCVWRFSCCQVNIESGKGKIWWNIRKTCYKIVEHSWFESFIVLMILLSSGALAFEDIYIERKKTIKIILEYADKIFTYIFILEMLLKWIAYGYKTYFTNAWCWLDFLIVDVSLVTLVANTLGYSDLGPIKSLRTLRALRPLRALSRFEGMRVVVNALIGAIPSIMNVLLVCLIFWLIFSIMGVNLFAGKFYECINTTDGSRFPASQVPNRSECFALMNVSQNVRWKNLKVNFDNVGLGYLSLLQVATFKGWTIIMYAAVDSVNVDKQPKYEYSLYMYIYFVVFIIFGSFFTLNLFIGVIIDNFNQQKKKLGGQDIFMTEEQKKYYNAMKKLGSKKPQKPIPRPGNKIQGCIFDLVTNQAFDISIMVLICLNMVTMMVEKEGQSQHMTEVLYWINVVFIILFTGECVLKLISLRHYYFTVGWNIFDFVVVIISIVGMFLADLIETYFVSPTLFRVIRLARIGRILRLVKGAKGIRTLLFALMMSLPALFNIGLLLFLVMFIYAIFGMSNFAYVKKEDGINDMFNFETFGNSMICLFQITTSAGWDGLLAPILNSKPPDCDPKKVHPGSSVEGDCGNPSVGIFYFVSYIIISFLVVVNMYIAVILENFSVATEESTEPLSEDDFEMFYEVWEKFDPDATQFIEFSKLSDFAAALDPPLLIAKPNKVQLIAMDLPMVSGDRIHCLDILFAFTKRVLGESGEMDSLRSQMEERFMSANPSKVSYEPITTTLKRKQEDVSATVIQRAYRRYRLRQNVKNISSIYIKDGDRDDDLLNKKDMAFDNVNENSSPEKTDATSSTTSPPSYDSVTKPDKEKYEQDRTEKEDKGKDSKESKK
Sequence of Nav1.5 (Q14524 whole entry): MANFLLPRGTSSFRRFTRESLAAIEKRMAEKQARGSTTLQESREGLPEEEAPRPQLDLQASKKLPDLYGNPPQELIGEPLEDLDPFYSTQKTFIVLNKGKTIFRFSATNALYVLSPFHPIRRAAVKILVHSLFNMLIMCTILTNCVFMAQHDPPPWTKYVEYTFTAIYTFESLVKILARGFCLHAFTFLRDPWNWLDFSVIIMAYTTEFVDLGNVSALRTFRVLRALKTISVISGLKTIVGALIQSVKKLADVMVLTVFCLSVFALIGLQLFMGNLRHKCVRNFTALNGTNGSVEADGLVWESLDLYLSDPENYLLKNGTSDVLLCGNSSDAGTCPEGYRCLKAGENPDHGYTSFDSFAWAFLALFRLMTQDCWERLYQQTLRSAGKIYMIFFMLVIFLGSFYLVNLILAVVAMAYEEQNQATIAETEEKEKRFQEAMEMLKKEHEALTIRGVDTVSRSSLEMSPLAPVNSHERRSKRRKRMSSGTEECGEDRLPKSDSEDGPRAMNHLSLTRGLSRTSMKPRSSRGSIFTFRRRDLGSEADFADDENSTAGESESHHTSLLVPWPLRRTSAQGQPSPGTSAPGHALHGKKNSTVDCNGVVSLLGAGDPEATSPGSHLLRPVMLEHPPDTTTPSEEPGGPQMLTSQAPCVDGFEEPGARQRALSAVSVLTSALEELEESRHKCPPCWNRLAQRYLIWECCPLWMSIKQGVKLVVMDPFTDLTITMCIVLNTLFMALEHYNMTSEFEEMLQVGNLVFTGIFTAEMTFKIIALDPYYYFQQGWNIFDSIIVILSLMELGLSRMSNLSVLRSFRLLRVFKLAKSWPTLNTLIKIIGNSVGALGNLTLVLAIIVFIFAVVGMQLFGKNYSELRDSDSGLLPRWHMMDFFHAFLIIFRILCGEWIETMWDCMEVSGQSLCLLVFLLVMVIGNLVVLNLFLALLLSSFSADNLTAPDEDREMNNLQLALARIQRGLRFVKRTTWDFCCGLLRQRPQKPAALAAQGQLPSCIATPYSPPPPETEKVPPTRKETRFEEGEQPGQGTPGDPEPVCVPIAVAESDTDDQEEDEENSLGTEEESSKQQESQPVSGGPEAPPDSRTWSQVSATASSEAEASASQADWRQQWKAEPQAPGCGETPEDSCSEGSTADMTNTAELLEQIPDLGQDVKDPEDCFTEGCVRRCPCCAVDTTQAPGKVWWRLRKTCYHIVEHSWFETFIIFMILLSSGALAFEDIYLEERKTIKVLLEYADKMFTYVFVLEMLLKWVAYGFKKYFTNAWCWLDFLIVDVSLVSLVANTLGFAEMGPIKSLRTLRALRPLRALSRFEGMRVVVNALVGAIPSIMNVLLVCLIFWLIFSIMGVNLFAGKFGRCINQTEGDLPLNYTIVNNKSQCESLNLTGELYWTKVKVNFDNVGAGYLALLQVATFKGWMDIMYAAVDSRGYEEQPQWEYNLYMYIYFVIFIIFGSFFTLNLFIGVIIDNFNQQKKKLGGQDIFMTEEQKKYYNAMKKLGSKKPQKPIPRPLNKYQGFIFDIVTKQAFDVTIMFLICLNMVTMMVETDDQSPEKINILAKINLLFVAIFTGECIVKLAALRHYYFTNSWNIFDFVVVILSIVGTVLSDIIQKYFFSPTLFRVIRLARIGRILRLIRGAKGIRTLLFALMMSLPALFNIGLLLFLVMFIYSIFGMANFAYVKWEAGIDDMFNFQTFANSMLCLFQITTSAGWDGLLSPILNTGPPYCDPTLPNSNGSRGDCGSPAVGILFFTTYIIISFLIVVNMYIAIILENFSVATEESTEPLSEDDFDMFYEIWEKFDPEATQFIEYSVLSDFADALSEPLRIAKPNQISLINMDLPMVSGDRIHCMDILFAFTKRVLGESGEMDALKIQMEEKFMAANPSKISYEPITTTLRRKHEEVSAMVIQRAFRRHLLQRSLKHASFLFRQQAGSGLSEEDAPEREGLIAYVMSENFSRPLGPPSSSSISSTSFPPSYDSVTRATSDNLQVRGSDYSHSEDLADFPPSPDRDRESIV
T10 sequence (P22001 whole entry): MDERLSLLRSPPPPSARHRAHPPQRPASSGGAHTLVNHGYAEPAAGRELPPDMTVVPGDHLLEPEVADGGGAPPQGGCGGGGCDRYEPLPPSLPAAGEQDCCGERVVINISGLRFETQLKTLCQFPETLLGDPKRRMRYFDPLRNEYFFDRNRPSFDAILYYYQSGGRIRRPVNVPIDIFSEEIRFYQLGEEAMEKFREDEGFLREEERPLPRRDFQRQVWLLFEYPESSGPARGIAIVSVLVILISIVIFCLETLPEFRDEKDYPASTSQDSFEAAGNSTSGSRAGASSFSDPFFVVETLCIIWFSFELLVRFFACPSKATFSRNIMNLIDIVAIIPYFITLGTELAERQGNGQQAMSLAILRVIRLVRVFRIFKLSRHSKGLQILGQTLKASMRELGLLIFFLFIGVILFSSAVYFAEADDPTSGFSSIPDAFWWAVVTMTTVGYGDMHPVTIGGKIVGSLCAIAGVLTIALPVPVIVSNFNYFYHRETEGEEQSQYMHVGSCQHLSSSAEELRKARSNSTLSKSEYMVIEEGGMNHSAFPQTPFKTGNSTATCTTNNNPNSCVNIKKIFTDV
T8 sequence (Q09470 whole entry): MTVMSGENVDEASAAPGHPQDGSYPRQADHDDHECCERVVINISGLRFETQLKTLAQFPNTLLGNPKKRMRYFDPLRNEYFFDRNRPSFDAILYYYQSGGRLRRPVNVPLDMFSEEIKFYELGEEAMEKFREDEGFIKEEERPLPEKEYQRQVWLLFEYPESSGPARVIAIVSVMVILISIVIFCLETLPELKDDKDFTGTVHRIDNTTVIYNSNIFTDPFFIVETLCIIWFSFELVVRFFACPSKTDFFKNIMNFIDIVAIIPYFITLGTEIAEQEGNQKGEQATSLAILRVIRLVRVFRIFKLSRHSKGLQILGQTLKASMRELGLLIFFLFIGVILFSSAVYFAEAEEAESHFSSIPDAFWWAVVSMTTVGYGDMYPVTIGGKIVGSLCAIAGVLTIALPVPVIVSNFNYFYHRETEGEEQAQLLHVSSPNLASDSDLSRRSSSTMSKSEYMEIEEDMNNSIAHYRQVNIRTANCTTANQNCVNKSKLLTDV

Substance: 22 (GSSDYCSNDFCFFSCRRDRCARGDCENGKCVCKNCHLN) [compound 22]
- Activity of 5HT3a with peptide (percentage of the reference compound) [1]: 95%
- Activity of 5HT3a with peptide, expressed as a percentage of the reference compound [1]: 77%
- Activity of a3b4 with peptide, expressed as a percentage of the reference compound ([2]; peptide at 0.2 μM): 98%
- Activity of a3b4 with peptide (percentage of the reference compound) ([2]; peptide at 20 μM): 92%
- Activity of a4b2 with peptide, expressed as a percentage of the reference compound ([3]; peptide at 0.2 μM): 92%
- Activity of a4b2 with peptide (percentage of the reference compound) ([3]; peptide at 20 μM): 83%
- Activity of Cav2.1 with peptide, expressed as a percentage of the reference compound ([4]; peptide at 0.2 μM): 98%
- Activity of Cav2.1 with peptide (percentage of the reference compound) ([4]; peptide at 20 μM): 99%
- Activity of Cav2.2 with peptide, expressed as a percentage of the reference compound ([5]; peptide at 0.2 μM): 130%
- Activity of Cav2.2 with peptide (percentage of the reference compound) ([5]; peptide at 20 μM): 86%
- Activity of Kv2.1 with peptide, expressed as a percentage of the reference compound ([6]; peptide at 0.2 μM): 110%
- Activity of Kv2.1 with peptide (percentage of the reference compound) ([6]; peptide at 20 μM): 93%
- Activity of GABA with peptide, expressed as a percentage of the reference compound ([7]; peptide at 0.2 μM): 99%
- Activity of GABA with peptide (percentage of the reference compound) ([7]; peptide at 20 μM): 124%
- Activity of Nav1.5 with peptide, expressed as a percentage of the reference compound [8, 19]: 90%
- Activity of Nav1.5 with peptide, expressed as a percentage of the reference compound [8, 20]: 90%
- Activity of Nav1.5 with peptide (percentage of the reference compound) [8, 19]: 112%
- Activity of Nav1.5 with peptide (percentage of the reference compound) [8, 20]: 116%
- Activity of hERG with peptide, expressed as a percentage of the reference compound ([9]; peptide at 0.2 μM): 84%
- Activity of hERG with peptide (percentage of the reference compound) ([9]; peptide at 20 μM): 79%
- Activity of Kir2.1 with peptide, expressed as a percentage of the reference compound ([10]; peptide at 0.2 μM): 94%
- Activity of Kir2.1 with peptide (percentage of the reference compound) ([10]; peptide at 20 μM): 97%
- Activity of Kv1.1 with peptide, expressed as a percentage of the reference compound ([11]; peptide at 0.2 μM): 83%
- Activity of Kv1.1 with peptide (percentage of the reference compound) ([11]; peptide at 20 μM): 97%
- Activity of Kv1.2 with peptide, expressed as a percentage of the reference compound ([12]; peptide at 0.2 μM): 82%
- Activity of Kv1.2 with peptide (percentage of the reference compound) ([12]; peptide at 20 μM): 34%
- Activity of Kv1.3 with peptide, expressed as a percentage of the reference compound ([13]; peptide at 0.2 μM): 100%
- Activity of Kv1.3 with peptide (percentage of the reference compound) ([13]; peptide at 20 μM): 51%
- Activity of Nav1.7 with peptide, expressed as a percentage of the reference compound [14, 21]: 79%
- Activity of Nav1.7 with peptide, expressed as a percentage of the reference compound [14, 22]: 81%
- Activity of Nav1.7 with peptide (percentage of the reference compound) [14, 21]: 94%
- Activity of Nav1.7 with peptide (percentage of the reference compound) [14, 22]: 87%
- Activity of NR2A with peptide, expressed as a percentage of the reference compound ([15]; peptide at 0.2 μM): 107%
- Activity of NR2A with peptide (percentage of the reference compound) ([15]; peptide at 20 μM): 129%
- Activity of NR2B with peptide, expressed as a percentage of the reference compound ([16]; peptide at 0.2 μM): 94%
- Activity of NR2B with peptide (percentage of the reference compound) ([16]; peptide at 20 μM): 97%
- Activity of TRPA1 with peptide, expressed as a percentage of the reference compound ([17]; peptide at 0.2 μM): 90%
- Activity of TRPA1 with peptide (percentage of the reference compound) ([17]; peptide at 20 μM): 128%
- Activity of TRPV1 with peptide, expressed as a percentage of the reference compound ([18]; peptide at 0.2 μM): 102%
- Activity of TRPV1 with peptide (percentage of the reference compound) ([18]; peptide at 20 μM): 67%
